Where two headings read alike, the source gives them in different places.
How the values were obtained:
TIGIT (human) [1] = target: T1, TIGIT (human) (UniProt Q495A1); experiment: flow cytometry on transfected HEK293 cells, 100 nM
T1 sequence: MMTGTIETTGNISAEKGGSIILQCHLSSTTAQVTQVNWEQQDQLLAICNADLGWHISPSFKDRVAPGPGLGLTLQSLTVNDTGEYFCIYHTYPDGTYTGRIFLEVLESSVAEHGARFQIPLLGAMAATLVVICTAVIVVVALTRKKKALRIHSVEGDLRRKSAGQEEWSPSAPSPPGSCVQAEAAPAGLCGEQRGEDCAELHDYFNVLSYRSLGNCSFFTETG

human PD-1 (human) [2] = target: human PD-1 (human) (UniProt Q15116)
Target sequence in this assay (Q15116 25-288): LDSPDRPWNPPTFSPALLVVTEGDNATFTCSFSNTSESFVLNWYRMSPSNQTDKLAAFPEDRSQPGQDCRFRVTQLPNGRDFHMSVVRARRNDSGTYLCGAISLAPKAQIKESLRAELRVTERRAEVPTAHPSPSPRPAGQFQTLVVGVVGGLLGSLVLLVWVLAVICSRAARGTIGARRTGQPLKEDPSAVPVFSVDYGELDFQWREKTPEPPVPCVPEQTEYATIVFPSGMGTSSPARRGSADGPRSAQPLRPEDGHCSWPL

[3] = target: CTLA-4, full-length, expressed on transfected cells (Homo sapiens (Human)) (UniProt P16410); experiment: flow cytometry, cells expressing target
[4] = target: CD28, full-length, expressed on transfected cells (Homo sapiens (Human)) (UniProt P10747); experiment: flow cytometry, cells expressing target
[5] = target: ICOS, full-length, expressed on transfected cells (Homo sapiens (Human)) (UniProt Q9Y6W8); experiment: flow cytometry, cells expressing target
PD-1-Fc (human) = PD-1-Fc (human) (UniProt Q15116); experiment: ForteBio Octet, PD-1 on anti-human capture sensor, 100 nM
human PD-1 (human) [6] = target: human PD-1 (human) (UniProt Q15116); experiment: flow cytometry, cells expressing PD-1, 20 nM
CD226 (human) [7] = target: T2, CD226 (human) (UniProt Q15762); experiment: flow cytometry, Fc fusion on Expi293 cells transfected with full-length human CD226
T2 sequence: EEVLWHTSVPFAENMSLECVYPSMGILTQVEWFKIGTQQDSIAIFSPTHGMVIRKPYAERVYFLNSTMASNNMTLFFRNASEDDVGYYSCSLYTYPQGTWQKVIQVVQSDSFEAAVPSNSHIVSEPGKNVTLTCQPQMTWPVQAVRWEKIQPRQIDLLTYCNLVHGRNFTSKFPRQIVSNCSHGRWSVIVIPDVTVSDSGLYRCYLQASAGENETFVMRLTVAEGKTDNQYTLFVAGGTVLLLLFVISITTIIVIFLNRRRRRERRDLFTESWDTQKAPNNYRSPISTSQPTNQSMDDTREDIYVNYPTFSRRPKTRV

TIGIT (human) [8] = target: T1, TIGIT (human); experiment: flow cytometry, Fc fusion on Expi293 cells transfected with full-length human TIGIT
CD112R (human) [9] = target: CD112R (human) (UniProt Q6DKI7); experiment: flow cytometry, Fc fusion on Expi293 cells transfected with full-length human CD112R
CD96 (human) [10] = target: T3, CD96 (human) (UniProt P40200); experiment: flow cytometry, CD96-transfected Expi293 cells
T3 sequence: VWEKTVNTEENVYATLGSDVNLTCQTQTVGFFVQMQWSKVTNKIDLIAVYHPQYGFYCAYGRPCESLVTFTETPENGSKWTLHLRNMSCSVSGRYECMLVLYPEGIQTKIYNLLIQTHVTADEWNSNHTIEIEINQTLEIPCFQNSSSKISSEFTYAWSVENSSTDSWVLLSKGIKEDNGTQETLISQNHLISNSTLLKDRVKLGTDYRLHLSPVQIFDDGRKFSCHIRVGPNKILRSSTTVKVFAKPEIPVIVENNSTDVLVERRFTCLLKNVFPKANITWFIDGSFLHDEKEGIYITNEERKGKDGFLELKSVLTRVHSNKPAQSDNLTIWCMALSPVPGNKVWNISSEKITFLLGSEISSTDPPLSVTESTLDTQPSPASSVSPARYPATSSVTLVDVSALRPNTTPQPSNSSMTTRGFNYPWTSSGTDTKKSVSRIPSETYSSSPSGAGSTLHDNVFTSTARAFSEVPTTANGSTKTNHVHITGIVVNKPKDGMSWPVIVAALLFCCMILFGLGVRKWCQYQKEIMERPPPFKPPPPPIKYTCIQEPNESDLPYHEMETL

CD226 (human) [11] = target: T2, CD226 (human); experiment: flow cytometry, CD226-transfected Expi293 cells
TIGIT (human) [12] = target: T1, TIGIT (human); experiment: flow cytometry, TIGIT-transfected Expi293 cells
CD28 (human) [13] = target: CD28 (human) (UniProt P10747); experiment: flow cytometry on HEK293 cells transfected with CD28
CTLA-4 (human) = experiment: flow cytometry on HEK293 cells transfected with CTLA4
PD-L1 (human) = experiment: flow cytometry on HEK293 cells transfected with PD-L1
CD96 (human) [14] = target: T3, CD96 (human); experiment: flow cytometry, transfected HEK293
CD226 (human) [15] = target: T2, CD226 (human); experiment: flow cytometry, transfected HEK293
TIGIT (human) [16] = target: T1, TIGIT (human); experiment: flow cytometry, transfected HEK293
CD112R (human) [17] = target: CD112R (human) (UniProt Q6DKI7); experiment: flow cytometry, transfected HEK293
CD80 (human) = experiment: flow cytometry, cells expressing CD80, 20 nM
[18] = target: CTLA-4 (Homo sapiens (Human)) (UniProt P16410); experiment: flow cytometry, transfected cells
[19] = target: ICOS (Homo sapiens (Human)) (UniProt Q9Y6W8); experiment: flow cytometry, transfected cells
[20] = target: CTLA-4 (Homo sapiens (Human)) (UniProt P16410); experiment: flow cytometry, transfected cells; remark: listed apart in the source
[21] = target: ICOS (Homo sapiens (Human)) (UniProt Q9Y6W8); experiment: flow cytometry, transfected cells; remark: listed apart in the source
[22] = target: CTLA-4 (Homo sapiens (Human)) (UniProt P16410); experiment: flow cytometry, transfected cells; remark: listed apart in the source
[23] = target: ICOS (Homo sapiens (Human)) (UniProt Q9Y6W8); experiment: flow cytometry, transfected cells; remark: listed apart in the source
CD96 (human) [24] = target: T3, CD96 (human); experiment: flow cytometry, transfected HEK293; secondary reagent alone
CD226 (human) [25] = target: T2, CD226 (human); experiment: as above
TIGIT (human) [26] = target: T1, TIGIT (human); experiment: as above
CD112R (human) [27] = target: CD112R (human) (UniProt Q6DKI7); experiment: as above
CD28 (human) [28] = target: CD28 (human) (UniProt P10747); experiment: flow cytometry, transfected cells

Sequence of CD112R (human) (Q6DKI7 whole entry, the tested form may be a part): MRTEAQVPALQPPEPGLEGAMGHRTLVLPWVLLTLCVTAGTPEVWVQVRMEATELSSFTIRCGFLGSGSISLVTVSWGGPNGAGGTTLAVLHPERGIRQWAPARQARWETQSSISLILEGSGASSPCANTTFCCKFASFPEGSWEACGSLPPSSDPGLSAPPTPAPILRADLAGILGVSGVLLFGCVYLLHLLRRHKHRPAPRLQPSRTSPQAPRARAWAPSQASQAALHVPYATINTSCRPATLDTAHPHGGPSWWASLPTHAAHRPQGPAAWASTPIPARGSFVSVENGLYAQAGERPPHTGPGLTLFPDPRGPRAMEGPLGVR
Sequence of WT CD80 IgV-Fc (inert) (Fc fusion) (chain): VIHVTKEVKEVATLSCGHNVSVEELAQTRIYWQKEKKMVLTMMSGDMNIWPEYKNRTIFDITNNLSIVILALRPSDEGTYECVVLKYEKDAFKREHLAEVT
Sequence of Wildtype ICOSL ECD-Fc (Fc fusion) (chain): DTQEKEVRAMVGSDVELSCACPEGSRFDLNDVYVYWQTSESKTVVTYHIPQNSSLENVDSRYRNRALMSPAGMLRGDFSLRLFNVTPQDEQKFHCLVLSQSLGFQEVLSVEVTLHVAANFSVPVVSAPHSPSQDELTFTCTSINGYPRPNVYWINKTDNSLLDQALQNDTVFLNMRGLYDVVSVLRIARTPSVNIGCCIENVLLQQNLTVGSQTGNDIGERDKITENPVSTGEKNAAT
Sequence of Wild type CD155 IgV-Fc (Fc fusion) (chain): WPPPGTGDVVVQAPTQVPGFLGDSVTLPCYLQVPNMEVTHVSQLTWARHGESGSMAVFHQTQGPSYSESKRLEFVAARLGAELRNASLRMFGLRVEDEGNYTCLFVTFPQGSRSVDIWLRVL
Sequence of CTLA-4 (Homo sapiens (Human)) (P16410 36-223): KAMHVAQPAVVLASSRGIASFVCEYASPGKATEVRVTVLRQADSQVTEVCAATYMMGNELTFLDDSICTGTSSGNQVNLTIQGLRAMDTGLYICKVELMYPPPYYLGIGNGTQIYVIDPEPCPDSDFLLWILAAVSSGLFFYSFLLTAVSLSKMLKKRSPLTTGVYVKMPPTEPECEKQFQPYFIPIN
Sequence of WT CD112 IgV (Fc fusion) (chain): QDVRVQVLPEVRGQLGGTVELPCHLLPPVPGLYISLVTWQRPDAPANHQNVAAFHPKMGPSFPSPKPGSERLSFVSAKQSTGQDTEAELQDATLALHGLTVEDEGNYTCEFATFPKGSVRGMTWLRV
Sequence of ICOS (Homo sapiens (Human)) (Q9Y6W8 21-199 limits assumed): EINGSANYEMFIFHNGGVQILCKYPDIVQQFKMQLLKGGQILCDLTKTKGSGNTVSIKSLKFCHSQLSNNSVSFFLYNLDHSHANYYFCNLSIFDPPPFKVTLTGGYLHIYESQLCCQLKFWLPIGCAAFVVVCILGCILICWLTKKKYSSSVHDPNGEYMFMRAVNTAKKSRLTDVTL
Sequence of CTLA-4, full-length, expressed on transfected cells (Homo sapiens (Human)) (P16410 36-223): as the sequence (P16410 36-223) above
Sequence of PD-1-Fc (human) (Q15116 25-167 limits assumed): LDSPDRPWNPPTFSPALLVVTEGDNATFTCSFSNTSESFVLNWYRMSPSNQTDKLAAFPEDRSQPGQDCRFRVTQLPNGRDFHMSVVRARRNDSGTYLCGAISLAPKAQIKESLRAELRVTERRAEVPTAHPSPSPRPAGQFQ
Sequence of CTLA-4 (human) (chain, as listed by the source): as the sequence (P16410 36-223) above
Sequence of WT CD80 ECD-Fc (Fc fusion) (chain): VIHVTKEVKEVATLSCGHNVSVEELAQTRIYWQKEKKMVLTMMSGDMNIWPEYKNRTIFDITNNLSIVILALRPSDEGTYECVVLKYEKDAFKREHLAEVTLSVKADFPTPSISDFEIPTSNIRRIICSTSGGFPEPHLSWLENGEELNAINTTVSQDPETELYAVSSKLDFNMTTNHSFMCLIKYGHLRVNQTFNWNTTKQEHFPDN
Sequence of ICOS, full-length, expressed on transfected cells (Homo sapiens (Human)) (Q9Y6W8 21-199 limits assumed): as the sequence (Q9Y6W8 21-199 limits assumed) above
Sequence of PD-L1 (human) (chain, as listed by the source): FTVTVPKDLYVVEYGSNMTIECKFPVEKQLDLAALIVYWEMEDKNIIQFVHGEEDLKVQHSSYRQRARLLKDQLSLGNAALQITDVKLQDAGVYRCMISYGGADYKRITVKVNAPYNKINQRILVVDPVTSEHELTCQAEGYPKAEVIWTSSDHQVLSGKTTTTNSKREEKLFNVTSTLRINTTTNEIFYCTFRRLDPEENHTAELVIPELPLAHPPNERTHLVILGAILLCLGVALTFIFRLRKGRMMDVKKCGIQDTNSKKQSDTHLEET

## variant CD112 IgV-Fc Y33H, A112V (Fc fusion)
TIGIT (human) [1]
  MFI at 100 nM: 20600 MFI

## variant PD-L2 IgV H15Q/T47A/H69L/Q82R/V89D Fc fusion
Human PD-1 (human) [2]
  IFN gamma levels pg/mL (MLR): 1730 pg/mL

## ICOSL ECD-Fc F138L/L203P (Fc fusion)
[3]
  MFI: 2150 MFI
[4]
  MFI: 1510 MFI
[5]
  MFI: 53800 MFI

## variant PD-L2 IgV I13V/H15Q/R76G/I85F Fc fusion
Human PD-1 (human) [2]
  IFN gamma levels pg/mL (MLR): 1530 pg/mL
PD-1-Fc (human)
  Fortebio Response Units (Response Units): -0.04

## ICOSL ECD-Fc N52S/E220G (Fc fusion)
[3]
  MFI: 1800 MFI

## variant PD-L1 G15A/I36T/V129D/R195G Fc fusion
Human PD-1 (human) [6]
  MFI at 20 nM: 125 MFI

## variant PD-L1 V129D/H202Q Fc fusion
Human PD-1 (human) [6]
  MFI at 20 nM: 2000 MFI

## CD112 N106Y, A112V (Fc fusion)
CD226 (human) [7]
  MFI: 15300 MFI
  MFI parental ratio (parental ratio): 0.06
TIGIT (human) [8]
  MFI: 6040 MFI
CD112R (human) [9]
  MFI: 1970 MFI
  MFI parental ratio (parental ratio): 1.36

## Wild type CD155 IgV-Fc (Fc fusion)
CD96 (human) [10]
  MFI: 3080
CD226 (human) [11]
  MFI: 3720
TIGIT (human) [12]
  MFI: 2720

## WT CD80 IgV-Fc (inert) (Fc fusion)
CD28 (human) [13]
  MFI at 66.6 nM: 1620 MFI
CTLA-4 (human)
  MFI at 66.6 nM: 20700 MFI
PD-L1 (human)
  MFI at 22.2 nM: 1770 MFI

## CD112 IgV-Fc Y33H/A112V (Fc fusion)
CD96 (human) [14]
  Fold Increase to WT IgV: 1.25 fold
  MFI at 20 nM: 3120
CD226 (human) [15]
  Fold Increase to WT IgV: 1.28 fold
  MFI at 20 nM: 13800
TIGIT (human) [16]
  Fold Increase to WT IgV: 5.09 fold
  MFI at 20 nM: 178000
CD112R (human) [17]
  Fold Increase to WT IgV: 0.69 fold
  MFI at 20 nM: 1150

## Fc Control
CD80 (human)
  MFI at 20 nM: 132 MFI
Human PD-1 (human) [6]
  MFI at 20 nM: 59 MFI

## WT CD80 ECD-Fc (Fc fusion)
CD28 (human) [13]
  MFI at 66.6 nM: 24800 MFI

## WT CD112 IgV (Fc fusion)
CD96 (human) [14]
  MFI at 20 nM: 2500
CD226 (human) [15]
  MFI at 20 nM: 10800
TIGIT (human) [16]
  MFI at 20 nM: 34900
CD112R (human) [17]
  MFI at 20 nM: 1660

## Wildtype ICOSL ECD-Fc (Fc fusion)
[18]
  MFI: 4770 MFI
[19]
  MFI: 83800 MFI
[20]
  MFI: 330000 MFI
[21]
  MFI: 212000 MFI
[22]
  MFI: 3800 MFI
[23]
  MFI: 36600 MFI

## variant PD-L2 IgV H15Q/T47A/K65R/S67L/Q82R/V89D Fc fusion
Human PD-1 (human) [2]
  IFN gamma levels pg/mL (MLR): 1340 pg/mL

## Anti-huFc PE (tool reagent)
CD96 (human) [24]
  MFI at 20 nM: 1060
CD226 (human) [25]
  MFI at 20 nM: 1010
TIGIT (human) [26]
  MFI at 20 nM: 1140
CD112R (human) [27]
  MFI at 20 nM: 1010

## CD155 IgV-Fc A81V, L83P (Fc fusion)
CD96 (human) [10]
  MFI: 2620
TIGIT (human) [12]
  MFI: 2910

## ICOSL ECD-Fc N52Q/N84Q/N168Q (Fc fusion)
CD28 (human) [28]
  MFI: 1580 MFI

— patent US20250163127A1
